# Measured values taken from the supplement of paper PMC7125110.
# ± gives the standard error. Variants at the floor of the assay were thinned out.
# B1: glmS ribozyme (parent)
# chain: AUAAAAGCGCCAGAACUACAGAAAUGUAGUUGACGAGGAGGAGGUUUAUCGAAUUUUCGGCGGAUGCCUCCAAA
# Variants of: B1
# Test: self-cleavage kobs at 2500 uM GlcN6P; higher = faster cleavage; RNA array
# Details: with glucosamine-6-phosphate
# Summary of the method: (§1)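 Barcoded ribozyme variants were transcribed in situ on sequenced MiSeq chips by E. coli RNA polymerase. At 37 °C, a hybridised Cy3 probe tracked them while glucosamine-6-phosphate (40 μM to 10 mM) in HEPES/KCl/Mg(OAc)2 buffer flowed in and tiles were imaged over ~14 h. Per-tile medians of signals normalised to baseline and to non-cleaving reference variants were fit to one- or two-exponential decays, giving kobs. kcat and KM came from weighted Michaelis–Menten fits across concentrations.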
row,Variant,self-cleavage kobs at 2500 uM GlcN6P [s⁻¹]
1,A14C G40U U47C A53G C61A C70U,< 1e-05
2,U30C C50G G63C,0.00014 ± 5.2e-05
3,G9U C16G G29C A52U G59U,< 1e-05
4,A6G G9U G29U G37A U46C U56C,< 1e-05
5,A6G U30A A39G,8.54e-05 ± 2.8e-05
6,A14C U45G C71A,4.43e-05 ± 1.3e-05
7,C10A G40U U56A U65C,< 1e-05
8,A6U C34A G44A,< 1e-05
9,A36C G44U C67U,< 1e-05
10,U31C C34A G37C,< 1e-05
11,G63C G66U C71A,< 1e-05
12,C8U G32U C34U C58G,< 1e-05
13,C8U A33G A64U,< 1e-05
14,A15C G51A C70G,6.1e-05 ± 2.9e-05
15,G32C A36U A53C,< 1e-05
16,C16U U57G U65A C70A,0.000271 ± 0.00013
17,C10G G13C A14G U31C U47A,< 1e-05
18,C50A C67A C70U,0.000109 ± 3.7e-05
19,G32U U46A C50U,< 1e-05
20,A39G G43U U54C,6.53e-05 ± 2.4e-05
21,G41C G43C U55A U57G U69G,< 1e-05
22,A12G A48C C50U,< 1e-05
23,G9C A48G C67U,< 1e-05

row,Variant,self-cleavage kobs at 2500 uM GlcN6P [s⁻¹]
1,A6U G37A U49C U54A,< 1e-05
2,C11U C16A U56G,0.000124 ± 4.3e-05
3,C16U G38A G66A,< 1e-05
4,G43A U47A,1.85e-05 ± 8.2e-06
5,G13C A14C G35C,< 1e-05
6,C16A U31C C70A,< 1e-05
7,G13U U55A C58A,0.001 ± 0.00012
8,G9A G29C G37U A48G A52C C70G,< 1e-05
9,U46C G60U G62U G63C,< 1e-05
10,G7C C11G G37U C58U,< 1e-05
11,C11G U56G G59U,4.72e-05 ± 2e-05
12,U54G U57A C67G,7.42e-05 ± 2.5e-05
13,C10U C16G C61U C71U,< 1e-05
14,G9U C11G A12G A48U G51C,< 1e-05
15,A14C A42G G43U C70A,< 1e-05
16,G29A G35U A53U,< 1e-05
17,G38C U49C U57A U65G C70G,< 1e-05
18,C10U C16U G37U G38A A39G C50G A64G U65C,0.000287 ± 0.00013
19,A15G G35C G37C U49C,< 1e-05
20,G9U A33G A53C,< 1e-05
21,C8G C10U C11U G13A C34G,< 1e-05
22,G41C U45A U56G C67G C70G,0.00118 ± 0.00023
23,G43A G59C C68G,< 1e-05

row,Variant,self-cleavage kobs at 2500 uM GlcN6P [s⁻¹]
1,U31G A33U C68G,< 1e-05
2,A14G G44U U56A,0.000881 ± 0.00031
3,G35C G60U C67A,< 1e-05
4,A12C C16U A36C,< 1e-05
5,U31C G38U A53U,< 1e-05
6,C8G C58U C61U G63U C68U,< 1e-05
7,G7C U31C U46C G66U,< 1e-05
8,U57C G66A,4.71e-05 ± 1.3e-05
9,A33C G38A C58U U65C,< 1e-05
10,G41U A52U U55A C70U,6.63e-05 ± 1.6e-05
11,A12G G13U G51U G63U C70A,0.000271 ± 9.9e-05
12,A6U A12U U46C C50U,< 1e-05
13,A42U C61G U69G C70A,< 1e-05
14,U31C A36G G41A G60U,< 1e-05
15,G38A U55C U56C,< 1e-05
16,G29U U54A C58A,0.000128 ± 3.8e-05
17,A12U A14G U46A C50G,< 1e-05
18,C16A G43U G51A,< 1e-05
19,C34A G35U U55G,< 1e-05
20,C16U G32C U54C,5.6e-05 ± 2.1e-05
21,C10A U45G U54G,< 1e-05
22,A6G G51U C58U,< 1e-05
23,G7C G9U G59U,< 1e-05

row,Variant,self-cleavage kobs at 2500 uM GlcN6P [s⁻¹]
1,G38A G43U A48G C58G,< 1e-05
2,C10U A15G G44U C50G,< 1e-05
3,C8A G29U C68G,< 1e-05
4,A14C A15G G62C C67A,< 1e-05
5,G37C G60C C67A,< 1e-05
6,G32A G41U C50U U56A G62U,< 1e-05
7,U57C G60A G66C,< 1e-05
8,A6C C11G U49G U65C C68G,< 1e-05
9,G9U C11U A33G G40U U69G,< 1e-05
10,G40U C61U U65A,< 1e-05
11,A12G G44A C70A,< 1e-05
12,G26A U30C,0.000125 ± 3.9e-05
13,A15U G29U U55A,0.00225 ± 0.00062
14,C11U U55A C58G,5.84e-05 ± 1.6e-05
15,G13U G29U U54G,8.58e-05 ± 2.4e-05
16,A14C A33C U49A G66C,< 1e-05
17,C16G C34U A36C,< 1e-05
18,G26C U47C G60C,< 1e-05
19,G29A U65A C71A,4.59e-05 ± 1.7e-05
20,C34U G40A U57A,< 1e-05
21,G13A U30A G32U,7.99e-05 ± 1.7e-05
22,A48U A53U U69C,0.000134 ± 3.4e-05
23,A14U A15U G40U,0.000122 ± 3.7e-05

row,Variant,self-cleavage kobs at 2500 uM GlcN6P [s⁻¹]
1,G44U A52C U56C G63A C67U,< 1e-05
2,G13A C16U G29U,5.93e-05 ± 2e-05
3,C8U G43U G62C C68U,< 1e-05
4,A33C A36U G38C,< 1e-05
5,C11A C34A A42C C70A,< 1e-05
6,C8G A42U U49C A52G,< 1e-05
7,G43C U56A G62A,< 1e-05
8,C16A U55A G59C C67U C70G,9.74e-05 ± 3.6e-05
9,C8G U69G,< 1e-05
10,G13C G38U U47A C70G,< 1e-05
11,C10G C34A G37A G60U,< 1e-05
12,C50A U69C,6.67e-05 ± 2e-05
13,C16U A48G A53G,9.32e-05 ± 2.7e-05
14,A15G A64C C71U,7.46e-05 ± 1.9e-05
15,G44C U55C C70G,< 1e-05
16,C16G G32C G41U U69C,< 1e-05
17,G38A A39U G43C A48U U55C C70A,< 1e-05
18,C10A A64C C67G,8.61e-05 ± 3.1e-05
19,A4C,0.0314 ± 0.0074
20,U45C C58U G59C,< 1e-05
21,G40C U45G C58U,< 1e-05
22,A12U G41U A48U,7.03e-05 ± 3e-05
23,A6G C11G U47A,< 1e-05

row,Variant,self-cleavage kobs at 2500 uM GlcN6P [s⁻¹]
1,U30A G41U C70G,0.00387 ± 0.0011
2,A14C U45C,0.000604 ± 0.00025
3,A6C U31C G59C G62U,< 1e-05
4,C10G G60C C61A,< 1e-05
5,C8U G35A G63U,< 1e-05
6,A36G G40C G59U,< 1e-05
7,G41C U47C C61G C67U,< 1e-05
8,G38C A39C U45A,< 1e-05
9,G51C G66A,< 1e-05
10,C10A A15U A42C G44C U56A C67G C70G,< 1e-05
11,A14U G32A G38U C50G C71G,0.000179 ± 3.5e-05
12,G9U C16A A42C U54A A64G C70U,< 1e-05
13,G29C G59U G66C C70A,0.000112 ± 2.7e-05
14,C10A G51A G66A C68A C70A,7.81e-05 ± 3.1e-05
15,U45C G60A G63C,< 1e-05
16,G7A G32U G60U,< 1e-05
17,G13C C16G U69G,7.16e-05 ± 3.5e-05
18,U55G C58U C70U,4.84e-05 ± 1.7e-05
19,C16A C50G C67A,0.00038 ± 0.00013
20,U54G C67G C70U C71U,0.000105 ± 1.9e-05
21,A12C U56G A64C,6.67e-05 ± 2.1e-05
22,A15U G35U G40A,< 1e-05
23,C16U G32A,0.00201 ± 0.00037

row,Variant,self-cleavage kobs at 2500 uM GlcN6P [s⁻¹]
1,A42U C50U G51U U54C,< 1e-05
2,A15C U31C U45A G59U U65A,< 1e-05
3,G13A A33C A48C,< 1e-05
4,U45G U46A G66U,0.000166 ± 3.9e-05
5,A15G A52U C70U,0.000255 ± 6.5e-05
6,C11G A33U U47G,< 1e-05
7,A39C G40A,0.000126 ± 3.1e-05
8,C10G G41U G59C G60C,< 1e-05
9,A42G G51U C67U,< 1e-05
10,C16G U30A C71U,0.000103 ± 3.5e-05
11,G7A C34U A36C,< 1e-05
12,A14G U46C U54A C71A,0.000844 ± 0.00027
13,G40C A52G G60A,< 1e-05
14,U31G G38C G44A,< 1e-05
15,A53U C67A C70A,5.59e-05 ± 2.7e-05
16,G7U G9U U47A,< 1e-05
17,G41C G51C U56A G62A,< 1e-05
18,C16A U46C U56C G63U C70U,< 1e-05
19,G29U G37C U46G,< 1e-05
20,A15U C16U U45A,0.00158 ± 0.00051
21,A15C U69G,7.29e-05 ± 2.2e-05
22,A33C G40A G43C A52C,< 1e-05

# Variants of: B1
# Test: self-cleavage kobs at 10000 uM GlcN6P; higher = faster cleavage; RNA array
# Details: with glucosamine-6-phosphate
# Summary of the method: as §1
row,Variant,self-cleavage kobs at 10000 uM GlcN6P [s⁻¹]
1,G9U C16G G29C A52U G59U,< 1e-05
2,G43A U47A,4.61e-05 ± 1.8e-05
3,G7C C11G G37U C58U,< 1e-05
4,U54G U57A C67G,7.25e-05 ± 1.8e-05
5,C10U C16U G37U G38A A39G C50G A64G U65C,0.0013 ± 0.0004
6,C8G C10U C11U G13A C34G,< 1e-05
7,U57C G66A,0.000102 ± 1.5e-05
8,G41U A52U U55A C70U,9.97e-05 ± 2.6e-05
9,C8A G29U C68G,< 1e-05
10,G32A G41U C50U U56A G62U,< 1e-05
11,G9U C11U A33G G40U U69G,< 1e-05
12,A14U A15U G40U,0.000149 ± 2.6e-05
13,A14C U45C,0.000368 ± 6.5e-05
14,G51C G66A,< 1e-05
15,A15C U31C U45A G59U U65A,< 1e-05
